Measurements from patent US20190241662A1 (ADAGENE, published 2019).
Numbering of substitutions follows the chain as printed.

Columns and labels:
[1] = target: T1, full-length human CTLA4 expressed on cells (human, UniProt P16410 36-223); experiment: flow cytometry, transfected HEK293F cells, antibody concentration not printed [Cont.]
T1 construct: whole, on cells; also called HEK293F/hCTLA-4 cells; HEK293F/hCTLA4 cells
T1 sequence (looked up): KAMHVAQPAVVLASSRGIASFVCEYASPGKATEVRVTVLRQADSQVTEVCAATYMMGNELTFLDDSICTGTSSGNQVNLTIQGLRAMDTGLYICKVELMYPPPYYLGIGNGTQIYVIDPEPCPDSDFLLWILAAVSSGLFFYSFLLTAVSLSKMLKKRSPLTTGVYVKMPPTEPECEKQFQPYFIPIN
Description: (§1) The affinities of the antibodies were also assessed against human and mouse CTLA4 transiently expressed on the surface of HEK293F cells (FIG. 2). Briefly, HEK293F cells were transfected with a plasmid expressing full-length human, monkey or mouse CTLA4 from a bicistronic IRES vector also encoding EGFP, and EGFP expression was used to identify the transfected cells. After 48 hours, the mammalian cell suspension (2×10⁵/well) was transferred to an Eppendorf tube, centrifuged, the supernatant was discarded, the cells were resuspended with 1 mL PBSA (to a density is 4×10⁶ cells/mL), and added to a 96 well plate. […] The cells were then washed once prior to analysis by flow cytometry (Beckman® CytoFlex).

[2] = target: T2, full-length mouse CTLA4 expressed on HEK293F cells (mouse, UniProt P09793 36-223); experiment: as above
T2 construct: whole, on cells
Description: as §1

[3] = target: T3, human B7H3 on HEK293F cells (human, UniProt Q5ZPR3 29-534); experiment: flow cytometry, transfected HEK293F cells, 100 nM antibody [Cont.]
T3 construct: whole, on cells
T3 sequence (looked up): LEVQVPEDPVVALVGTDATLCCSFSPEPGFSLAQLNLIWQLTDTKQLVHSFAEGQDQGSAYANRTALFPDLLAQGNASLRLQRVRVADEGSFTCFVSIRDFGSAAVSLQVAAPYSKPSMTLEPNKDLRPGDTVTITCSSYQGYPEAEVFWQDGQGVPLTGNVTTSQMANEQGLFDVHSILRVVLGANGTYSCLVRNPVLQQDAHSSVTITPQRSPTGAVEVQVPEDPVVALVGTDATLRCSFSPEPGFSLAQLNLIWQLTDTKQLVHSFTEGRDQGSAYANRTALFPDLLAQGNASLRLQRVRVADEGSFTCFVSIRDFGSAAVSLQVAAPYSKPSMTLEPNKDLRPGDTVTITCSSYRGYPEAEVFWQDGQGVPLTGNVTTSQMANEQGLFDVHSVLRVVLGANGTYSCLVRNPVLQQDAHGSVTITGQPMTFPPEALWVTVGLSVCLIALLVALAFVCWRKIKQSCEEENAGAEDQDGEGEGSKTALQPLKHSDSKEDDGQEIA
Description: (§2) Antibody selectivity was next examined. Human CTLA4, PD1, LAG3, Tim3, B7H3, CD95, TNFR1, OX40, CD40, PD-L1, BLTA, VISTA, PDL2, ICOS and B7H4 were transiently overexpressed on the surface of HEK293F cells. Transfected cells were washed in pre-chilled 1×PBSA buffer (1.76 mM KH2PO4, 10.14 mM Na2HPO4.12H2O, 2.68 mM KCl, 136.89 mM NaCl and 1% BSA), then incubated with 100 nM test antibodies for 1 hour on ice. Cells were washed once with staining buffer, and Alexa Fluor® 647 conjugated mouse anti-human FC antibodies were added and incubated for 30 minutes on ice, protected from light. Samples were washed once with staining buffer prior to analysis by flow cytometry.

[4] = target: T4, human PD1 on HEK293F cells (human, UniProt Q15116 25-288); experiment: as above
T4 construct: whole, on cells
Description: as §2

[5] = target: T1, full-length human CTLA4 expressed on …; experiment: flow cytometry, transfected HEK293F cells, antibody concentration not given
Description: as §1

[6] = target: T2, full-length mouse CTLA4 expressed on …; experiment: as above
Description: as §1

[7] = target: T5, human TNFR1 on HEK293F cells (human, UniProt P19438 30-455); experiment: flow cytometry, transfected HEK293F cells, 100 nM antibody [Cont.]
T5 construct: whole, on cells; also called CD120a
T5 sequence (looked up): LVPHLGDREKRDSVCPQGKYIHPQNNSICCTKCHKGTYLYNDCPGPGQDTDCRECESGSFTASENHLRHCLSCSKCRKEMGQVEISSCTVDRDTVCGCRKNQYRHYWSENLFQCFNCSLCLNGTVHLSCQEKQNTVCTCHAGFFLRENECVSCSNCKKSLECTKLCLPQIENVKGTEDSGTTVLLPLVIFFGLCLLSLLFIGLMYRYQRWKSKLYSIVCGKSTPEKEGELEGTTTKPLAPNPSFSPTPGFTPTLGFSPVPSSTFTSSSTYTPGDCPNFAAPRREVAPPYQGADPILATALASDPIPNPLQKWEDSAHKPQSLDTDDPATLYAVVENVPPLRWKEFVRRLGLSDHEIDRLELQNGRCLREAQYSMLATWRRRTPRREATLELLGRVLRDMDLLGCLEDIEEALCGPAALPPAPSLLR
Description: as §2

[8] = target: T6, human OX40 on HEK293F cells (human, UniProt P43489 29-277); experiment: as above
T6 construct: whole, on cells
T6 sequence (looked up): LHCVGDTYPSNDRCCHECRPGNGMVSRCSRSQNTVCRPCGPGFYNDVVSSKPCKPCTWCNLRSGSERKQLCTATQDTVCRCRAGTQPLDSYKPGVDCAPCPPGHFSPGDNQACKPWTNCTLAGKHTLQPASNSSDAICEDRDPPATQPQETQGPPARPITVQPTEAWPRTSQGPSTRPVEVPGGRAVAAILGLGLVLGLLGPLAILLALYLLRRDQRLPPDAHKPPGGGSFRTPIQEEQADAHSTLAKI
Description: as §2

T4 sequence (Q15116 25-288): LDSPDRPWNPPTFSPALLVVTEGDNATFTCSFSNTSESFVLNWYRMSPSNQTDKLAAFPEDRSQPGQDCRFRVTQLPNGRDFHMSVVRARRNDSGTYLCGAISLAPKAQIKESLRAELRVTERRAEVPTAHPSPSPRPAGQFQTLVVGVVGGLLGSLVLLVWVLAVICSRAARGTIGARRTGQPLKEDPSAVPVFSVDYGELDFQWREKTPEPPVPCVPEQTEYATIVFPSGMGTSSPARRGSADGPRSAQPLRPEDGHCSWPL

B1: TY21687 (antibody, V domains shown)
VH: EVQLVESGGGLVQPGGSLRLSCAASGFTFSGYAIHWVRQAPGKGLEWIGIISPSGGGTKYAQKFQGRVTISRDNSKNTLYLQLNSLRAEDTAVYYCARHPFAYWGQGTLVTVSS
VL: DIQLTQSPSSLSASVGDRVTITCRASQSVDFYGISFLDWYQQKPGKAPKLLIYDASNRATGIPSRFSGSGSGTDFTLTISSLQPEDFATYYCQQYVSSPPEYTFGQGTKVEIK
notes: human IgG1 (hIgG1) from Fab hit B15700
[1]
  % of cells in upper right quadrant (Q2): 50.4
  Mean: 433000
[2]
  % of cells in upper right quadrant (Q2): 33.4
  Mean: 633000
[3]
  % of cells in upper right quadrant (Q2): 1.29%
[4]
  % of cells in upper right quadrant (Q2): 5.96%

B2: TY21585 (antibody, V domains shown)
VH: EVQLVESGGGLVQPGGSLRLSCAASGFTFSDYAIHWVRQAPGKGLEWIGIISPSSGSTNYAQKFQGRVTISRDNSKNTLYLQLNSLRAEDTAVYYCARDIHSGSSGYYYGFDVWGQGTLVTVSS
VL: B1 VL with Q27E, Y32F, D38A, Q94H, V96T, E101V
notes: human IgG1 (hIgG1) from Fab hit B15709
[5]
  % of cells in upper right quadrant (Q2): 25.7%
[6]
  % of cells in upper right quadrant (Q2): 30.8%

B3: TY21591 (antibody, V domains shown)
VH: EVQLVESGGGLVQPGGSLRLSCAASGFSLSTGGVAVSWIRQAPGKGLEWIGEIYHSGSTYYSPSLKSRVTISRDNSKNTLYLQLNSLRAEDTAVYYCARRIATATYFDYWGQGTLVTVSS
VL: DIQLTQSPSSLSASVGDRVTITCRASQTVFSRYLAWYQQKPGKAPKLLIYDASNRATGIPSRFSGSGSGTDFTLTISSLQPEDFATYYCQQSYYWPPWTFGQGTKVEIK
notes: human IgG1 (hIgG1) from Fab hit B15756
[7]
  % of cells in upper right quadrant (Q2): 0.33
  Mean: 6490
[8]
  % of cells in upper right quadrant (Q2): 0.42
  Mean: 11900
